Experimental data reported in the supplement of paper PMC7125110.
± gives the standard error. For some of these results: This sample holds only a part of the variants without activity.

B1: glmS ribozyme (parent)
chain: AUAAAAGCGCCAGAACUACAGAAAUGUAGUUGACGAGGAGGAGGUUUAUCGAAUUUUCGGCGGAUGCCUCCAAA

Tests used:
Conditions in all cases: with glucosamine-6-phosphate
glucosamine-6-phosphate [1] = variants of: B1; test: kcat; higher = faster cleavage; RNA array
In short: (§1)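 kcat and KM were obtained from weighted Michaelis–Menten fits across concentrations of kobs values. Those came from one- or two-exponential decay fits to per-tile medians normalised to baseline and to non-cleaving reference variants. The variants were barcoded ribozymes transcribed in situ by E. coli RNA polymerase on sequenced MiSeq chips and tracked through a hybridised Cy3 probe at 37 °C, with 40 μM to 10 mM glucosamine-6-phosphate in HEPES/KCl/Mg(OAc)2 buffer flowed in.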

glucosamine-6-phosphate [2] = variants of: B1; test: self-cleavage kobs at 2500 uM GlcN6P; higher = faster cleavage; RNA array
In short: as §1

glucosamine-6-phosphate [3] = variants of: B1; test: self-cleavage kobs at 10000 uM GlcN6P; higher = faster cleavage; RNA array
In short: as §1

glucosamine-6-phosphate [4] = variants of: B1; test: self-cleavage kobs at 160 uM GlcN6P; higher = faster cleavage; RNA array
In short: as §1

glucosamine-6-phosphate [5] = variants of: B1; test: self-cleavage kobs at 640 uM GlcN6P; higher = faster cleavage; RNA array
In short: as §1

glucosamine-6-phosphate [6] = variants of: B1; test: KM; higher = weaker cofactor use; RNA array
In short: as §1

glucosamine-6-phosphate [7] = variants of: B1; test: self-cleavage kobs at 40 uM GlcN6P; higher = faster cleavage; RNA array
In short: as §1

Variant	kcat (glucosamine-6-phosphate [1]) [s⁻¹]	self-cleavage kobs at 2500 uM GlcN6P (glucosamine-6-phosphate [2]) [s⁻¹]	self-cleavage kobs at 10000 uM GlcN6P (glucosamine-6-phosphate [3]) [s⁻¹]	self-cleavage kobs at 160 uM GlcN6P (glucosamine-6-phosphate [4]) [s⁻¹]	self-cleavage kobs at 640 uM GlcN6P (glucosamine-6-phosphate [5]) [s⁻¹]	KM (glucosamine-6-phosphate [6]) [µM]	self-cleavage kobs at 40 uM GlcN6P (glucosamine-6-phosphate [7]) [s⁻¹]
C16A U45C	9.45e-05 ± 2.3e-05	8.36e-05 ± 2.3e-05	7.72e-05 ± 1.4e-05				
A15U U69G	5.2e-05 ± 1.9e-05	6.85e-05 ± 2.1e-05		4.3e-05 ± 1.3e-05			
A15U U69A	7.22e-05 ± 1.3e-05	8.33e-05 ± 1e-05	5.39e-05 ± 1.2e-05		4.48e-05 ± 1.1e-05		
A15C G44A	2.81e-05 ± 1.7e-07		2.02e-05 ± 9.6e-06	< 1e-05		3920 ± 72	< 1e-05
A15C G44U	4.07e-05 ± 6.1e-06			< 1e-05			< 1e-05
A15G C61A	< 1e-05						
A15G C61U	1.94e-05 ± 1e-06					631 ± 280	
A15G G44U	0.00046 ± 2.8e-05	0.000252 ± 6.3e-05	0.0004 ± 3.1e-05	3.52e-05 ± 1.5e-05	0.000151 ± 2.5e-05	1550 ± 270	
A15G G44A	0.000572 ± 0.00011	0.000327 ± 5.5e-05	0.00044 ± 9.5e-05	2.81e-05 ± 1.2e-05	0.000152 ± 2.1e-05	2050 ± 620	
A15G G59U C67U	5.74e-05 ± 6.3e-06		4.69e-05 ± 1.5e-05			2230 ± 1000	
A15G U54C	0.0142 ± 0.0059		0.0181 ± 0.0046	0.0021 ± 0.00098			0.000969 ± 0.00018
A15U U65G	0.00187 ± 0.00077	0.00056 ± 0.00017	0.00139 ± 0.00025	6.21e-05 ± 1e-05	0.00036 ± 4.5e-05		3.19e-05 ± 1.1e-05
A15C U31G	0.00453 ± 0.0018	0.00159 ± 0.00063	0.00376 ± 0.0012	0.000187 ± 5.2e-05			8.5e-05 ± 3.2e-05
A15C U31A	0.00691 ± 0.0013	0.00303 ± 0.00078	0.0067 ± 0.001	0.000607 ± 0.00013	0.0015 ± 0.00035	1860 ± 480	0.000156 ± 2.2e-05
A15C G29C G37A C61U	< 1e-05						
A15G U47G U55A	0.0098 ± 0.003	0.00474 ± 0.0016	0.00887 ± 0.003		0.00364 ± 0.0011	1860 ± 850	0.000187 ± 5.9e-05

Variant	kcat (glucosamine-6-phosphate [1]) [s⁻¹]	self-cleavage kobs at 2500 uM GlcN6P (glucosamine-6-phosphate [2]) [s⁻¹]	self-cleavage kobs at 10000 uM GlcN6P (glucosamine-6-phosphate [3]) [s⁻¹]	self-cleavage kobs at 160 uM GlcN6P (glucosamine-6-phosphate [4]) [s⁻¹]	self-cleavage kobs at 640 uM GlcN6P (glucosamine-6-phosphate [5]) [s⁻¹]	KM (glucosamine-6-phosphate [6]) [µM]	self-cleavage kobs at 40 uM GlcN6P (glucosamine-6-phosphate [7]) [s⁻¹]
A15G G41C	0.000647 ± 4.6e-05	0.00032 ± 5.7e-05	0.000544 ± 6.2e-05	4.44e-05 ± 1.5e-05	0.000149 ± 2.7e-05	2170 ± 310	
A14U U55C	0.00666 ± 0.0014	0.00352 ± 0.00053	0.0066 ± 0.001	0.000488 ± 8.3e-05	0.00161 ± 0.00025	1760 ± 500	0.000181 ± 2.3e-05
A14U U55G	0.00848 ± 0.0029	0.0041 ± 0.00047	0.0105 ± 0.0021	0.000508 ± 8e-05	0.00176 ± 0.00023	2280 ± 1100	0.000209 ± 3.1e-05
A15C U49G	0.000113 ± 1.2e-05	8.06e-05 ± 2.4e-05	9.51e-05 ± 1.9e-05			1520 ± 550	
C16G C71U	0.00252 ± 0.00053	0.00228 ± 0.00066	0.00248 ± 0.00036	0.000323 ± 5.6e-05	0.000865 ± 0.00012	956 ± 300	0.000132 ± 1.8e-05
A15C C67U	0.00143 ± 0.00033	0.00177 ± 0.00038	0.00139 ± 0.00015	0.000198 ± 6.2e-05	0.00045 ± 6.9e-05	881 ± 330	7.54e-05 ± 8.7e-06
A15U U45A	0.0179 ± 0.0054	0.00648 ± 0.0023	0.0145 ± 0.0023	0.000772 ± 0.00017	0.00219 ± 0.00059	3230 ± 1300	0.000298 ± 4.7e-05
C16G A52G	0.000339 ± 0.0001	0.000119 ± 1.9e-05	0.000262 ± 4.1e-05		7.43e-05 ± 2.3e-05		
A15U C50G A53U U55A	3.35e-05 ± 1.6e-05	4.02e-05 ± 1.8e-05					
A15G U46C	0.00378 ± 0.0014		0.00388 ± 0.0013	0.000465 ± 0.00016	0.000897 ± 0.00029	1440 ± 680	0.000112 ± 2.9e-05
A15G A64C	0.000162 ± 9.6e-06	9.56e-05 ± 1.6e-05	0.00013 ± 2.2e-05		3.75e-05 ± 6.6e-06	2040 ± 230	
A15G A36U	< 1e-05			< 1e-05	< 1e-05		
C16A A64U	< 1e-05			< 1e-05			< 1e-05
A15U C16G G59C G60A C67U	< 1e-05						
A15G G40C	0.00522 ± 0.0011	0.0027 ± 0.00028	0.00506 ± 0.00049	0.000354 ± 6.3e-05	0.00122 ± 0.00017	1800 ± 590	0.000151 ± 1.6e-05
C16G A53U	0.00332 ± 0.00045	0.00182 ± 0.0004	0.00295 ± 0.00047	0.000238 ± 6e-05	0.000752 ± 0.00012	1910 ± 380	8.15e-05 ± 1.4e-05
